# Data as given in US20080138335A1 (Kyowa Kirin, published 2008).
# Residue numbers refer to the chain shown, from its start. Names and notes keep the numbering of the source.
# B1: 341-G [1/1/2/2] (antibody)
# heavy: QVQLQQSGPGLVKPSQTLSLTCAISGDSVSSNSATWNWIRQSPSRDLEWLGRTYYRSKWYRDYVGSVKSRIIINPDTSNNQFSLQLNSVTPEDTAIYYCTRAQWLGGDYPYYYSMDVWGQGTTVTVSS
# VL: EIVLTQSPATLSLSPGERATLSCRASQSVSSYLAWYQQKPGQAPRLLIYDASNRATGIPARFSGSGSGTDFTLTISSLEPEDFAVYYCQQRSNTFGPGTKVDIK
# notes: also called IgG[1/1/2/2]; N5KG1122; not shown: human IgG1 heavy chain constant region, CH1 and hinge domains (EU 118-237), from vector N5KG1-Val Lark; human IgG2 heavy chain constant region, CH2 and CH3 domains (EU 238-446), from vector N5KG2
# B2: 341-G [2/2/2/1] (antibody)
# heavy: B1 heavy
# VL: B1 VL
# notes: also called IgG[2/2/2/1]; N5KG2221; not shown: human IgG2 heavy chain constant region, CH1, hinge and CH2 domains (EU 118-340), from vector N5KG2; human IgG1 heavy chain constant region, CH3 domain (EU 341-446), from vector N5KG1
# B3: 341-G [2/2/1/1] (antibody)
# heavy: B1 heavy
# VL: B1 VL
# notes: also called IgG[2/2/1/1]; N5KG2211; not shown: human IgG2 heavy chain constant region, CH1 and hinge domains (EU 118-237), from vector N5KG2; human IgG1 heavy chain constant region, CH2 and CH3 domains (EU 238-446), from vector N5KG1
# B4: 341-G [2/2/1/2] (antibody)
# heavy: B1 heavy
# VL: B1 VL
# notes: also called IgG[2/2/1/2]; N5KG2212; not shown: human IgG2 heavy chain constant region, CH1 and hinge domains (EU 118-237), from vector N5KG2; human IgG1 heavy chain constant region, CH2 domain (EU 238-340), from vector N5KG1 by way of N5KG2211; human IgG2 heavy chain constant region, CH3 domain (EU 341-446), from vector N5KG2
# B5: 4D11-G[1133] (antibody, V domains shown)
# VH: QLQLQESGPGLLKPSETLSLTCTVSGGSISSPGYYGGWIRQPPGKGLEWIGSIYKSGSTYHNPSLKSRVTISVDTSKNQFSLKLSSVTAADTAVYYCTRPVVRYFGWFDPWGQGTLVTVSS
# VL: AIQLTQSPSSLSASVGDRVTITCRASQGISSALAWYQQKPGKAPKLLIYDASNLESGVPSRFSGSGSGTDFTLTISSLQPEDFATYYCQQFNSYPTFGQGTKVEIK
# notes: also called IgG[1/1/3/3]; N5KG1133; not shown: human IgG1 heavy chain constant region, CH1 and hinge domains (EU 118-237), from vector N5KG1-Val Lark; human IgG3 heavy chain constant region, CH2 and CH3 domains (EU 238-446), from vector N5KG3
# B6: 4D11-G3[E356D] (antibody, V domains shown)
# VH: B5 VH
# VL: B5 VL
# notes: One-amino acid variant of 4D11-G3; also called IgG3-[E356D]; N5KG3-E356D; not shown: human IgG3 heavy chain constant region, from vector N5KG3
# B7: 4D11-G[3311] (antibody, V domains shown)
# VH: B5 VH
# VL: B5 VL
# notes: also called IgG[3/3/1/1]; N5KG3311; not shown: human IgG3 heavy chain constant region, CH1 and hinge domains (EU 118-237), from vector N5KG3; human IgG1 heavy chain constant region, CH2 and CH3 domains (EU 238-446), from vector N5KG1
# B8: 4D11-G3[R435H] (antibody, V domains shown)
# VH: B5 VH
# VL: B5 VL
# notes: One-amino acid variant of 4D11-G3; also called IgG3[R435H]; N5KG3-R435H; not shown: human IgG3 heavy chain constant region, from vector N5KG3
# B9: 4D11-G[3331] (antibody, V domains shown)
# VH: B5 VH
# VL: B5 VL
# notes: also called IgG[3/3/3/1]; N5KG3331; not shown: human IgG3 heavy chain constant region, CH1, hinge and CH2 domains (EU 118-340), from vector N5KG3; human IgG1 heavy chain constant region, CH3 domain (EU 341-446), from vector N5KG1
# B10: 4D11-G3[M397V] (antibody, V domains shown)
# VH: B5 VH
# VL: B5 VL
# notes: One-amino acid variant of 4D11-G3, made on N5KG3-4D11; also called N5KG3-M397V; 4D11-G[M397V]; not shown: human IgG3 heavy chain constant region, from vector N5KG3-4D11
# B11: 4D11-G[3313] (antibody, V domains shown)
# VH: B5 VH
# VL: B5 VL
# notes: also called IgG[3/3/1/3]; N5KG3313; not shown: human IgG3 heavy chain constant region, CH1 and hinge domains (EU 118-237), from vector N5KG3; human IgG1 heavy chain constant region, CH2 domain (EU 238-340), from vector N5KG1 by way of N5KG3311; human IgG3 heavy chain constant region, CH3 domain (EU 341-446), from vector N5KG3
# B12: 4D11-G3[I422V] (antibody, V domains shown)
# VH: B5 VH
# VL: B5 VL
# notes: One-amino acid variant of 4D11-G3; also called IgG3[I422V]; N5KG3-1422V; not shown: human IgG3 heavy chain constant region, from vector N5KG3
# B13: 4D11-G3[N392K] (antibody, V domains shown)
# VH: B5 VH
# VL: B5 VL
# notes: One-amino acid variant of 4D11-G3; also called IgG3[N392K]; N5KG3-N392K; not shown: human IgG3 heavy chain constant region, from vector N5KG3
# B14: 4D11-G3[M358L] (antibody, V domains shown)
# VH: B5 VH
# VL: B5 VL
# notes: One-amino acid variant of 4D11-G3; also called IgG3[M358L]; N5KG3-M358L; not shown: human IgG3 heavy chain constant region, from vector N5KG3
# B15: 341-G2Ser[Q274K] (antibody, human IgG2, kappa)
# heavy: QVQLQQSGPGLVKPSQTLSLTCAISGDSVSSNSATWNWIRQSPSRDLEWLGRTYYRSKWYRDYVGSVKSRIIINPDTSNNQFSLQLNSVTPEDTAIYYCTRAQWLGGDYPYYYSMDVWGQGTTVTVSSASTKGPSVFPLAPCSRSTSESTAALGCLVKDYFPEPVTVSWNSGALTSGVHTFPAVLQSSGLYSLSSVVTVPSSNFGTQTYTCNVDHKPSNTKVDKTVERKCCVECPPCPAPPVAGPSVFLFPPKPKDTLMISRTPEVTCVVVDVSHEDPEVKFNWYVDGVEVHNAKTKPREEQFNSTFRVVSVLTVVHQDWLNGKEYKCKVSNKGLPASIEKTISKTKGQPREPQVYTLPPSREEMTKNQVSLTCLVKGFYPSDIAVEWESNGQPENNYKTTPPMLDSDGSFFLYSKLTVDKSRWQQGNVFSCSVMHEALHNHYTQKSLSLSPGK
# light: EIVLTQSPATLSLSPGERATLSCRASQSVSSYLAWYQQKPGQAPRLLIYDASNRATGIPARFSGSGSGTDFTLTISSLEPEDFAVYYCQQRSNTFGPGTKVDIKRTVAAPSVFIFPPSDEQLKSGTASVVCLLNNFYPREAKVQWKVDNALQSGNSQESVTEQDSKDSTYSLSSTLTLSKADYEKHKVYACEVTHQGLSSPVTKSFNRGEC
# notes: Made from the 341-G2Ser expression vector; also called N5KG2Ser-341-Q274K
# B16: 341-G2Ser[F300Y] (antibody, human IgG2, kappa)
# heavy: B15 heavy with K281Q, F307Y
# light: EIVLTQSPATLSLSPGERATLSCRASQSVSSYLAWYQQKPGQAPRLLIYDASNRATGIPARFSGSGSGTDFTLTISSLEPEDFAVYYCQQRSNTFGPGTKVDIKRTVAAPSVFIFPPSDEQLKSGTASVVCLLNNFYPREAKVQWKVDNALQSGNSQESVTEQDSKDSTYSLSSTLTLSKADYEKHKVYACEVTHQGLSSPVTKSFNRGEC
# notes: Made from the 341-G2Ser expression vector; also called N5KG2Ser-341-F300Y
# B17: 341-G2Ser[G327A] (antibody, human IgG2, kappa)
# heavy: B15 heavy with K281Q, G334A
# light: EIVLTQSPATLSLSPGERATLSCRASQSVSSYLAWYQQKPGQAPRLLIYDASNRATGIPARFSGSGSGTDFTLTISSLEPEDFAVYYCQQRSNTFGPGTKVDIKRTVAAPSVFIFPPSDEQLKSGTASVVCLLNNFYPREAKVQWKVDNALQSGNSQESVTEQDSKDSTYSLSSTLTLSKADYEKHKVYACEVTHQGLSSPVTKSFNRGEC
# notes: Made from the 341-G2Ser expression vector; also called N5KG2Ser-341-G327A
# B18: 341-G2Ser[T339A] (antibody, human IgG2, kappa)
# heavy: B15 heavy with K281Q, T346A
# light: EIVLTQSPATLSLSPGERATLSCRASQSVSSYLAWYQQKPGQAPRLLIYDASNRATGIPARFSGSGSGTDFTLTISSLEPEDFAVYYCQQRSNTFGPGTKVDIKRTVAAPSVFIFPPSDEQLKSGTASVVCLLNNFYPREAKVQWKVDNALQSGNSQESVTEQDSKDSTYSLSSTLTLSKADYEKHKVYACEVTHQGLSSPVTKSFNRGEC
# notes: Made from the 341-G2Ser expression vector; also called N5KG2Ser-341-T339A
# B19: 341-G2Ser[F296Y] (antibody, human IgG2, kappa)
# heavy: B15 heavy with K281Q, F303Y
# light: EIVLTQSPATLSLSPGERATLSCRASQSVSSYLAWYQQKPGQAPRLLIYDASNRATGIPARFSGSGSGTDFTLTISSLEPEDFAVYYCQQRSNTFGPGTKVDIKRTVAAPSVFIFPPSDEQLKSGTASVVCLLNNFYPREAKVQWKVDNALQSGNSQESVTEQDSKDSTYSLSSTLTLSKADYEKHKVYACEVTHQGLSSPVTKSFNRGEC
# notes: Made from the 341-G2Ser expression vector; also called N5KG2Ser-341-F296Y
# B20: 341-G2Ser[V309L] (antibody, human IgG2, kappa)
# heavy: B15 heavy with K281Q, V316L
# light: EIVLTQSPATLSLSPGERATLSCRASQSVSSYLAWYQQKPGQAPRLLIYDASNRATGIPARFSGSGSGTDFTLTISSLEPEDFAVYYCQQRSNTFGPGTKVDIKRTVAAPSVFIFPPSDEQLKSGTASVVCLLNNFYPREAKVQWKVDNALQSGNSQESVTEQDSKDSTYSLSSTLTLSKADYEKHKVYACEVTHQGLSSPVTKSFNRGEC
# notes: Made from the 341-G2Ser expression vector; also called N5KG2Ser-341-V309L
# Molecular target: T1, CD40 expressed on Ramos [ATCC] cells (UniProt P25942 21-277, limits assumed)
# T1 construct: whole, on cells; Target of all flow cytometry and CD95 assays; endogenous CD40 on the Ramos cell line
# T1 sequence (P25942 21-277 limits assumed): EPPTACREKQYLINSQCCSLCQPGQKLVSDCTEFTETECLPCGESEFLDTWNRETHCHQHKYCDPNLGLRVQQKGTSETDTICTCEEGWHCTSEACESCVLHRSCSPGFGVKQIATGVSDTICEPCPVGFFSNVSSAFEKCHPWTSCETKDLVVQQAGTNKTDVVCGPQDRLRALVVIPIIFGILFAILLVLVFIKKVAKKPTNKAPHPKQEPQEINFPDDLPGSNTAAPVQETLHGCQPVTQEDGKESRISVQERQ
# Assay: flow cytometry (FACS) on Ramos cells expressing CD40, R-PE anti-human antibody
row,binding result,Binder
1,binds,B1
2,binds,B2
3,binds,B3
4,binds,B4
5,binds,B5
6,binds,B6
7,binds,B7
8,binds,B8
9,binds,B9
10,binds,B10
11,binds,B11
12,binds,B12
13,binds,B13
14,binds,B14
15,binds,B15
16,binds,B16
17,binds,B17
18,binds,B18
19,binds,B19
20,binds,B20
